From paper doi:10.1101/575795

The substances below were run against CCR5-SNAP labeled with Alexa-488 (CCR5-SNAP-488) (human) (UniProt P51681) (assay: fluorescence cross-correlation spectroscopy).
UniProt P51681, sequence (P51681 whole entry): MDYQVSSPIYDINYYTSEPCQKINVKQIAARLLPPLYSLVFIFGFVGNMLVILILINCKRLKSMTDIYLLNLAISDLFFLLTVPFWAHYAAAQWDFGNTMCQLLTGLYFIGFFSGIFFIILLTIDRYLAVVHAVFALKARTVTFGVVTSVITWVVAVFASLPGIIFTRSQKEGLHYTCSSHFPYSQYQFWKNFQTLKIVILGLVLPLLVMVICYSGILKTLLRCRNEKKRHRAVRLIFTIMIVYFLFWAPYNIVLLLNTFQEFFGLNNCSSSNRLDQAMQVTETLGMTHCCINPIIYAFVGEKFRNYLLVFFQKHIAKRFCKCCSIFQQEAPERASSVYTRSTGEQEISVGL

Substance	Kd [nM]	Ki [nM]
Alexa-647-labeled 5P12-RANTES (5P12-647) (from UniProt P13501 24-91) (ligand)	0.37	
Alexa-647-labeled 5P14-RANTES (5P14-647) (from UniProt P13501 24-91) (ligand)	0.48	
5P12-RANTES, non-labeled (from UniProt P13501 24-91) (ligand)		0.14
Alexa-647-labeled PSC-RANTES (PSC-647) (from UniProt P13501 24-91) (ligand)	6.6	
Alexa-647-labeled 6P4-RANTES (6P4-647) (from UniProt P13501 24-91) (ligand)	10.4	
6P4-RANTES, non-labeled (from UniProt P13501 24-91) (ligand)		3.5
